First the molecules themselves.
B1: C064 (antibody, V domains shown)
VH: EVQLLESGGDLVQPGGSLRLSCAASGFTFSNYAMSWVRQAPGKGLEWVSAISGSGGNTYYADSVKGRFTISRDNSKNTLYLQMNSLRAEDTAVYYCAKAVHYGGNSDRRFSEPSAPFDYWGQGTLVTVSS
VL: QSALTQPASVSGSPGQSITISCTGTSSDVGSYNLVSWYQQHPGKAPKLMIYEGSKRPSGVSNRFSGSKSGNTASLTISGLQAEDEADYYCCSYAGSSTPYVFGTGTKVTVL
B2: C519 (antibody, V domains shown)
VH: QVQLQESGPGLVKPSETLSLTCAVSGGSISSYYWSWIRQPPGKGLEWIGYIDTSGSTNYNPSLKSRVTMSVDTSKNQFSLNVNSVTAADTAVYFCGVCAGDCYAASVFDYRGQGTLVTVSS
VL: DIQMTQSPSSLSASVGDRVTITCQASQDIIFYLNWYQQKPGKAPKLLIYDASNLKTGVPSRFSGSGSGTDFAFTISSLQPEDIATYYCQQYDNLPLTFGGGTKVEIK
B3: C063 (antibody, V domains shown)
VH: EVQLVQSGAEVKKPGDSLKISCKASGYSFTRYWIGWVRQMPGKGLDWMGIIYPGDSDTRYSSSFQGQVTISADKSISTAYLQWSSLKASDTSLYYCVRRASSTNFEFWGQGTLVTVSS
VL: SYELTQPPSVSVAPGQTATITCGGNNIGSKTVHWYQQKPGQAPVVVVYDDSDRPSGIPERFSGSKSGSTATLTITRVEAGDEADYYCQVWDSTSDHYVFGTGTKVAVI
B4: C094 (antibody, V domains shown)
VH: QVQLQESGPGLVKPSETLSLTCNVSGVSISTDYWSWIRQPPGKGLEWIGYIYYSGNTKDYNPSLKSRVTISVDTSKNQFSLMLSSVTAADTAVYYCARHYDILTSLSWFDPWGQGTLVTVSS
VL: QSVLTQPPSVSAAPGQKVTISCSITNSNLGNIYVSWYQQLPGTAPKLLIYGNNKRPSGIPDRFSGSKSGTSATLGITGLQTGDEAHYYCGTWDSSLSANWVFGGGTKLTVL
B5: C068 (antibody, V domains shown)
VH: QVQLVESGGGVVQPGRSLRLSCVASGFSFSTYGMHWVRQAPGKGLEWVALIWSDGSNKYYGDAAEGRFTISRDNSNNTLYLQMNNLRAEDTALYYCARDHSSSSFVYYYYMDVWGKGTTVTVSS
VL: QSALTQPRSVSGSPGQSVTISCTGTSSDIGGYNYVSWYQQHPDKAPKFIIFDVSKRPSGVPDRFSGSKSGNTASLTISGLQAEDEADYYCCSYAGPYPYVFGTGTKVTVL
B6: C032 (antibody, V domains shown)
VH: EVQLVQSGAEVKKPGESLKISCKGSGYSFTSYWIGWVRQMPGKGLEWMGIIYPGDSDTRYSPSFQGQVTISADKSISTAYLQWSSLKASDTAMYYCARGVAVDWYFDLWGRGTLVTVSS
VL: QSVLTQPPSVSGAPGQRVTISCTGSSSNIGAGYDVHWYQQLPGTAPKLLIYGNSNRPSGVPDRFSGSKSGTSASLAITGLQAEDEADYYCQSYDSSLSALYVFGTGTKVTVL
B7: C080 (antibody, V domains shown)
VH: EVQLVQSGAEVKKPGESLNISCKASGYSFTIYWIAWVRQLPGKGLEWMGIIYPGDSDTRYSPSFQGQVTISADKSISTAYLQWRSLKASDSAVYYCARGVAVDWYFDLWGRGTLVTVSS
VL: QSVLTQPPSVSGAPGQRVTISCAGSSSNIGAGFDVYWYQQLPGTAPKLLIYGNNNRPSGVPDRFSGSKSGTSASLAITGLQAEDEADYYCQSSGSVLSDLYVFGTGTKVTVL
B8: C085 (antibody, V domains shown)
VH: QVQLQESGPGLVKPSETLSLTCTVSGDSMSSYFWTWIRQPPGKGLECIGYFYPSGSTNYNPSLKSRVTISIDTSKNQFSLKLSSVTAADTAVYYCARLKQQLVGFGWFDPWGQGTLVTVSS
VL: QSVLTQPPSVSGAPGQRVTISCTGSSSNIGADYDVHWYQQFPGTAPKVLIYANTNRPSGVPERFSGSKSGTSASLAITGLQAEDEADYYCQSYDHSLNWVFGGGTKLTVL
B9: C086 (antibody, V domains shown)
VH: QVQLQESGPGLVKPSETLSLTCTVSGDSISTYFWAWIRQPPGRGLECIGSFFPSGSTYYNPSLKSRVTISVDTSKNQFSLKLNSVTAADTAVYYCARLKQQLVGFGWFDPWGQGSLVTVSS
VL: QSVLTQPPSVSGAPGQRVTISCTGSISNIGADYEVHWYVQFPGTAPKVLIYANTNRPSGVPERFSASKSGTSASLAITGLQAEDEADYYCQSYDHRLHWVFGGGTKLTVL
B10: C067 (antibody, V domains shown)
VH: VQLVESGGGVVQPGRSLRLSCAASGFSFRIFGMNWVRQAPGKGLDWVAGISHDGSDKYFADSVKGRFTISRDNSKNTLYLQMNSLRADDTAVYYCARDMEVDYYDRSGHYHVFHAFDIWGQGTMVTVSS
VL: DIVMTQSPDSLAVSLGARATINCKSSQSILYSSDNKSSLAWYQQKPGHPPKLLIYWASTRESGVPDRFSGSESGTDFTLTISNLQGEDVAVYYCQQYYSIPRSFGQGTKLEIK
B11: C088 (antibody, V domains shown)
VH: QVQLVQSGAEAKKPGASVKVSCKTSGYTFTNYFMHWVRQAPGQGPEWMGIIDSSDGGASYAQKFQGRVTMTRDTSTSTVYMELRSLKFEDTAVYYCARASTSTTSWSDALSLGSWGQGTLVTVSS
VL: QSVLTQPPSVSGAPGQRVTISCTGSSSNIGGGSVVHWYQQLPGTAPKLLIYANSNRPSGVPDRFSGSKSGTSASLAIAGLQAEDEADYYCQSWDNGLSASGVVFGGGTKLTVL
B12: C089 (antibody, V domains shown)
VH: QVQLVESGGGVVQPGRSLRLSCAASGFTFRTYAMHWVRQAPGKGLEWVAVILSDGNNKYYADSVKGRFTISRDNSKNTLYLQMNSLRAEDTAIFYCAREQEANYYDISGYYHWGESLGYWGQGTLVTVSS
VL: DIQLTQSPSFLSASVGDRVTITCRASQGISSYLAWYQQKPGKAPKLLIYGASTLQSGVPSRFSGSGSGTEFTLTISSLQPEDFASYYCQKVNSHPPGLTFGGGTKVEIK
B13: C090 (antibody, V domains shown)
VH: QVQLVESGGGVVQPGRSLRLSCAASGFTFRTYAMHWVRQAPGKGLEWVAVILSDGNNKYYADSVKGRFTISRDNSKNTLYLQMNSLRAEDTAIFYCAREQEANYYDISGYYHWGESLGYWGQGTLVTVSS
VL: DIQLTQSPSFLSASVGDRVTITCRASQGISSYLAWYQQKPGKAPKFLIYGASTLQSGVPSRFSGSGSGTEFTLTISSLQPEDFASYYCQKVNSYPPGLTFGGGTKVEIK
B14: C083 (antibody, V domains shown)
VH: EVQLVESGGGLVKPGGSLRLSCAASGFTFSSYSMNWVRQAPGKGLEWVSSISSSTSYIYYADSVKGRFTISRDNAKNSLYLQMNSLRAEDTAVYYCARERYGDNWGQGTLVTVSS
VL: QLVLTQSPSASASLGASVKLTCTLSSGHSSYAIAWHQQQPEKGPRYLMSLNSDGSHSKGDGIPDRFSGSSSGAERYLTISSLQSEDEADYYCQTWGPWVFGGGTKLTVL
B15: C069 (antibody, V domains shown)
VH: QVQLVQSGAEVKKPGSSVNVSCKASGGTFSTYAIHWVRQAPGQGLEWMGGIIPLFHTANYAQKFQGRVTITADESTSTAYMELSSLRSEDTAMYYCAINTQWDLVPRWGRGTLVTVSS
VL: EIVLTQSPGTLSLAPGERATLSCRASQSVNSNYLAWYQQKPGQAPRLLIYGASSRATGIPDRFSGSGSGTDFTLTISRLEPEDFAVYYCQQYGFSLYSFGQGTKLEIK
B16: C059 (antibody, V domains shown)
VH: QVQLVQSGAEVKKPGASIKVSCKASGYTFTDYSMHWVRQAPGQGLEWMGWINPNSGGTKYAQKFQGWVTMTRDMSITTVYMELTRLRSDATAVFYCARGPLFHKLVYDSWTGYHDGFDIWGQGTMVTVSS
VL: QSALTQPASVSGSPGQSITISCTGTSSDVGGYNYVSWYQHYPGKAPKLMIYEVTHRPSGVSNRFSGSKSGNTASLTISGLQAEDEADYYCSSSTNSSTWVFGGGTKMTVL
B17: C062 (antibody, V domains shown)
VH: EVQLVESGGGLVKPGGSLRLTCAASGFTFSTYSMNWVRQAPGKGLEWVSSISSSSSYIYYADSVKGRFTISRDNAKNSLYLQMNSLRAEDTAVYYCARERGYYGGKTPPFLGGQGTLVTVSS
VL: NFMLTQPHSVSESPGKTVTISCTGSSGSIASNYVQWYQQRPGSAPTTVIYEDNQRPSGVPDRFSGSIDSSSNSASLTISGLKTEDEADYYCQSYDSSNYWVFGGGTKLTVL
B18: C518 (antibody, V domains shown)
VH: EVQLVESGGGLIQPGGSLRLSCAASGITVSSNYMSWVRQAPGKGLEWVSVMYAGGSSFYADSVKGRFTISRDNSKNTLYLQMNSLRVEDTAVYYCARDLIALGVDVWGQGTTVTVSS
VL: DIQLTQSPSFLSASVGDRVTITCRASQGISSYLAWYQQKPGKAPKLLIYAASTLQSGVPSRFSGSGSGTEFTLTISSLQPEDFATYYCQLLNSYPMCSFGQGTKLEIK
B19: C066 (antibody, V domains shown)
VH: EVQLVESGGGLIQPGGSLRLSCAASGLLVSRNYMTWVRQAPGKGLEWVSVIYSGGSTFYADSVRGRFTISRDNSKNTLYLQMDSLRAEDTAVYYCARDVGDYYGMDVWGQGTTVTVSS
VL: DIQLTQSPAFLSASVGDRVTITCRASQGMSNYLAWYQQKPGKAPNLLIYTASTLQSGVPSRFSGSGSGTEFTLTISSLQPEDFATYYCQLLNSYPQLTFGGGTKVEIK
B20: C060 (antibody, V domains shown)
VH: EVQLVESGGGLVQPGGSQRLSCAASGFTVSSNYMSWIRQAPGKGLEWVSVIYSGGSAYYVDSVKGRFTISRDNSKNTLYLQMNSLRPEDTAVYYCARIANYMDVWGKGTTVTVSS
VL: EIVMTQSPATLSVSPGERATLSCRASQSVSSHLAWYQQKPGQAPRLLIYGASTRATGIPTRFSGSGSGTEFTLTISSLQSEDFAVYYCQQYNNWPPLTFGGGTKVEIK
B21: C065 (antibody, V domains shown)
VH: QVQLQESGPGLVKPSQTLSLTCTVSGGSISSSNYYWSWIRQHPGKGLEWIGYIDYSGGTYYNPSLKSRVTISVDTSKNQFSLKLSSVTAADTAVYYCARVSTTVTTYLVGGFDIWGQGTMVTVSS
VL: IRMTQSPSSLSASVGDRVTITCQASQDITNYLNWYQQKPGKAPKLLLYDASNLETGVPSRFSGSGSGTDFTFTISSLQPEDIATYYCQQYDNLPWTFGQGTKVEIK

The target of the assay is SARS-CoV-2 receptor binding domain (RBD), wild type (SARS-CoV-2, UniProt P0DTC2 319-539). In words: ELISA, RBD protein coated, mAb titrated. A general note: ELISA stands for enzyme-linked immunosorbent assay.
In the case of B1, the EC50 – broadly, the concentration giving half of the maximal effect – came to 363 ng/mL.
B2 gave an EC50 of 1.06 ng/mL.
For the molecule B3, the concentration for a half-maximal effect (EC50) turned out to be 414 ng/mL.
Molecule B4 showed an EC50 of 1.67 ng/mL.
Under B5 stands 5.46 ng/mL.
As to B6, the 50% effective concentration (EC50) was determined as 17.3 ng/mL.
Under B7 stands 1.97 ng/mL; under B8, 2.38 ng/mL; under B9, 3.01 ng/mL.
Consider B10, for which the EC50 turned out to be 6.98 ng/mL.
In turn, B11 showed a concentration for a half-maximal effect (EC50) of 2.44 ng/mL.
For B12 the value was 4.69 ng/mL; for B13, 6.22 ng/mL.
For B14 the value was 25.1 ng/mL; for B15, 381 ng/mL.
In turn, B16 yielded an EC50 of 1.88 ng/mL.
B17 had an EC50 of 4.69 ng/mL.
Under B18 stands 1.13 ng/mL; under B19, 4.2 ng/mL.
For B20 the value was 43.5 ng/mL; for B21, 29.1 ng/mL.

Values taken from US20220195015A1 (published 2022).
